Like-named read-outs stand apart in the source and are kept apart here.
What was measured:
[1] = target: HIV-1 full-length wild-type capsid protein (CA), residues 1-231 (HIV-1) (UniProt P03347); experiment: dynamic light scattering
[2] = target: HIV-1 full-length wild-type capsid protein (CA), residues 1-231 (HIV-1) (UniProt P03347); experiment: dynamic light scattering; remark: listed apart in the source

HIV-1 full-length wild-type capsid protein (CA), residues 1-231 (from UniProt P03347 133-363) (natural protein)
stoichiometry N [1]: 2 | stoichiometry N [2]: 2

Source: article PMC3194004
